In publication PMC6917740:
One block for each binder: values may come before it.

Target: T1, 12 amino acid peptide (HSET-N) labeled with biotin at the N-terminus (bio-…)
T1 sequence (peptide, biotin at the N-terminus): EDGLEPEKKRTR
Experiment: SPR; BIAcore T200, 25 °C; biotinylated peptide immobilised on a Series S sensor chip SA at 10-40 RU; antibodies injected 3 min at 30 µl/min in HBS-EP (10 mM HEPES pH 7.4, 250 mM NaCl, 3 mM EDTA, 0.05% P-20); at least five concentrations; 1:2 binding model, which reflects the avidity effect; KD = …

- Kd: 2.45 nM
- koff: 0.00138 s⁻¹
- kon: 567000 M⁻¹ s⁻¹
B1: mouse 6C407 IgG2a/κ (antibody, V domains shown)
VH: EVQLQQSGAELVKPGASVKLSCTASGFNIKDTYIHWVKQRPEQGLEWIGRIDPANGNTKYDPKFQGKATITADTSSNTAYLQLSSLTSEDTAVYYCARGYGSRSAMDYWGQGTSVTVS
VL: DIVLTQSPASLAVSLGQRATISCRASKSVSTSGYSYMLWYQQKPGQPPKLLIYLASNLESGVPARFSGSGSGTDFTLNIHPVEEEDAATYYCQHSRELPWTFGGGTKLEIK

- Kd: 1.24 nM
- koff: 0.000632 s⁻¹
- kon: 511000 M⁻¹ s⁻¹
B2: chimeric mouse-chicken MC-6C407 IgY/λ (antibody, V domains shown)
VH: B1 VH
VL: B1 VL
